Data reported in patent publication US20230324408A1 (JUNO THERAPEUTICS, published 2023).

B1: anti-idiotype antibody clone F112 (antibody, mouse IgG1, V domains shown)
VH: QVQLQQPGAELVRPGASVKLSCKASGYPFTSYWINWVKQRPGQGLEWIGMIDPSDSETHYNQMFKDKATLTVDRSSSTAYMHLSSLTSEDSAVYYCARGGIRDYWGQGTTLTVSS
VL: QAVVTQESALTTSPGETVTLTCRSSTGAVTTSNYANWVQEKSDHLFTGLIGGTNNRAPGVPARFSGSLIGDKAALTITGAQTEDEAIYFCALWYSNHWVFGGGTKLTVLG
B2: anti-idiotype antibody clone F101 (antibody, mouse IgG1, kappa, V domains shown)
VH: QVQFQQSGAELARPGASVKLSCKASGYTFTSYWMQWVKQRPGQGLEWIGTIYPGDGDARYSQKFKGKATLTADKSSSTAYMQLSSLASEDSAVYYCTRRRGYDAMDYWGQGTSVTVSS
VL: NIVLTQSPASLAVSLGQRATISCRASESVDSYGSSFMHWYQEKPGQPPKLLIFLASNLESGVPARFSGSGSRTDFTLTIDPVEADDAATYYCQQNNEDPNMYTFGGGTKLEIRR
B3: anti-idiotype antibody clone F107 (antibody, mouse IgG1, kappa, V domains shown)
VH: QVTLKESGPGILKPSQTLSLTCSFSGFSLNTFGMGVGWIRQPSGKGLEWLAHIWWDDDKHYHPSLKSQLTISKDTSRNQVFLKITSVDTTDTATYYCVRRYRYDVFDYWGPGTTLTVSS
VL: DVMMTQTPLSLPVSLGDQASISCRSSQSLVHSNGNTYLHWYLQKPGQSPKLLIYKVSNRFSGVPDRFSGSGSGTDFTLKISRVEAEDLGVYFCSQSTHGPWTFGGGTKLEIKR

molecular target: exemplary anti-ROR1 (ROR 1-1) chimeric antigen receptor; assay: cell-based or functional assay
Sequence (chain, as listed by the source mutant limits assumed): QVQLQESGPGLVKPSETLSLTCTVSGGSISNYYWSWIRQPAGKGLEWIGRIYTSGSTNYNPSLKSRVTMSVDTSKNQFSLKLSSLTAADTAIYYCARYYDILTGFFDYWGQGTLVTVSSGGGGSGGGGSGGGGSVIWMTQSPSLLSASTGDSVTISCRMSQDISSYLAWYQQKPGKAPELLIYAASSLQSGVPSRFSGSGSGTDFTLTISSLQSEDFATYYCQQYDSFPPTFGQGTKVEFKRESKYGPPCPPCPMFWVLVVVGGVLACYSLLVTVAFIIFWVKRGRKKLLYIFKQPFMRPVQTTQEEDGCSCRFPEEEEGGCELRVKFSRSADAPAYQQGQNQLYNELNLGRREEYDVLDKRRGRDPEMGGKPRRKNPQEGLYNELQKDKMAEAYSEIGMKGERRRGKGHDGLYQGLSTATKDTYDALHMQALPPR

Row | % Nur77-TdT of EGFRt+ cells, soluble antibody 0.3 ug/mL [%] | % Nur77-TdT of EGFRt+ cells, soluble antibody 0.6 ug/mL [%] | % Nur77-TdT of EGFRt+ cells, soluble antibody 10 ug/mL [%] | Binder
1 | 38.3 | 41.3 | 43.2 | B1
2 | 11.4 | 11.8 | 11.7 | B2
3 | 15.6 | 19.9 | 28.3 | B3

molecular target: exemplary anti-ROR1 (ROR 1-1) chimeric antigen receptor; assay: cell-based or functional assay; remark: another data set of the same source

Row | % Nur77-TdT of EGFRt+ cells, plate coated with 5 ug/ml antibody [%] | Binder
4 | 83.9 | B1
5 | 89.8 | B2
6 | 85 | B3
